Source: the RNAGym collection of RNA variant scans (doi:10.7554/elife.80360)

B1: Hammerhead Ribozyme (parent)
chain: ACCGGAUGUGCUUUCCGGUCUGAUGAGUCCGUGAGGACGAAACAG

Variants of: B1
Test: self-cleavage, relative activity (ratio to wild type); higher = more cleavage; co-transcriptional

Variant	self-cleavage
ACCGGAUGUGCUUUCCGGUCUGAUUAGUCCGUGAGGACGAAGCAG [G25U A42G]	0.246
ACCGCAUGUGCUUUCCGGUCUGAUGAGUCCGUGAGGACGAAACUG [G5C A44U]	0.358
ACCGGAUGUGCAUUCCGGUCUGAUGAGUCCGUCAGGACGAAACAG [U12A G33C]	1.37
ACCGGAUGUGCUUUCCGGUCUGAUGAGUCCGUGCGGACGCAACAG [A34C A40C]	0.316
ACCGUAUGUGCUUUCCGGUCUGAUAAGUCCGUGAGGACGAAACAG [G5U G25A]	0.351
ACCGGAUGUCCUUUCCUGUCUGAUGAGUCCGUGAGGACGAAACAG [G10C G17U]	0.932
ACCGGAUGUGCUCUCGGGUCUGAUGAGUCCGUGAGGACGAAACAG [U13C C16G]	0.666
ACCGGAUGAGCUUUCCGGUCUGAGGAGUCCGUGAGGACGAAACAG [U9A U24G]	0.919
ACCCGAUGUGCUUUCCGGGCUGAUGAGUCCGUGAGGACGAAACAG [G4C U19G]	0.322
ACCGGAUGUGCUCUCCGGUCUUAUGAGUCCGUGAGGACGAAACAG [U13C G22U]	0.346
ACCGGAUGUGCUUUCCGGUCUGAUUAGUCCGUGAGGACGAAACAA [G25U G45A]	0.306
ACCGGAUGUGCUUUCCGGUCUGAUGAGUCCCUGAGGACGAAACAA [G31C G45A]	0.438
ACCUGAUGUGCUUUCCGGUCUGAUGAGUCCGUGAGGACGAAGCAG [G4U A42G]	0.336
ACCGGAUGUGCUUUCCGGUCUGAUGAGUCCGUGGUGACGAAACAG [A34G G35U]	0.847
ACCGGAUGUGCUUUCCGGUCUGAUGAGUCCGUGGGGAAGAAACAG [A34G C38A]	0.349
ACCGGAUGUGCUUUCCGGUCUGAUGAGUCCGUGGGGAGGAAACAG [A34G C38G]	0.598
ACCGGCUGUGCUUUCCGGUCUGAUGAGUCCGUGAGGAAGAAACAG [A6C C38A]	0.469
ACCGGAUGUGCUUUCCGGUCUGAUAAGUCCGUGAGUACGAAACAG [G25A G36U]	0.33
ACCGGAUGUGCCUUCCGGUCUGAUGAGUCAGUGAGGACGAAACAG [U12C C30A]	0.955

Variant	self-cleavage
ACCGGUUGUGCUUUCCGGUCUGAUGAGUCCGUGAGUACGAAACAG [A6U G36U]	0.391
ACCGGAUUUGCUUUCCGGUCUGAUGAGUCCGUGAGGACAAAACAG [G8U G39A]	0.395
ACCGGAUGUUCUUUCCGGUGUGAUGAGUCCGUGAGGACGAAACAG [G10U C20G]	0.343
ACCGCAUGUGCUUUUCGGUCUGAUGAGUCCGUGAGGACGAAACAG [G5C C15U]	1.31
ACCGGAUGUGCUUUCGGGUCUGAUGAGUCCGUGAGGACGAAUCAG [C16G A42U]	0.26
ACCGGAUGUGCUUUCCGGUCUGCUCAGUCCGUGAGGACGAAACAG [A23C G25C]	0.37
ACCGGAUGUUGUUUCCGGUCUGAUGAGUCCGUGAGGACGAAACAG [G10U C11G]	1.2
ACCGGAUGUGCUUUCCGUUCUGAUGAGUCCGUUAGGACGAAACAG [G18U G33U]	0.705
ACCGGAUGUGCUUUCCAGUCUGAUGAGUCCGUGAGGACGAAAGAG [G17A C43G]	0.441
ACCGGAUGUACUUUCCGGUCUGAUGAGUCCGUGAGGACGAAAUAG [G10A C43U]	0.605
ACCGGAUGUGCUUUCCGGGCUUAUGAGUCCGUGAGGACGAAACAG [U19G G22U]	0.304
ACCAGAUGUGCUUUCCGGUCUGAUGAGGCCGUGAGGACGAAACAG [G4A U28G]	0.341
ACAGGAUGUGCUUUCCGGUCUGAUGAGUCCGUGAGGACGGAACAG [C3A A40G]	0.353
ACCCGAUGUGCUUUCCGGUCUGAUGAGUACGUGAGGACGAAACAG [G4C C29A]	0.317
ACCGGAUGUGCUUUCCGGUCUGAUGAGUCCGUGUUGACGAAACAG [A34U G35U]	0.584
ACCGGAUGUGCUUUUCAGUCUGAUGAGUCCGUGAGGACGAAACAG [C15U G17A]	0.556
ACCGGAUGUGCUUUCCGGUCUGACGAGUCCCUGAGGACGAAACAG [U24C G31C]	1.02
ACCGGAUGUGUUUUCCGGUCUGAUGAGUCCGUCAGGACGAAACAG [C11U G33C]	0.659
ACCGUAUGUGCUUUCCGGCCUGAUGAGUCCGUGAGGACGAAACAG [G5U U19C]	0.396

Variant	self-cleavage
ACCGGAUGUGCUGUCCGGUCUGAUGAGUCCGUGAGGACGAACCAG [U13G A42C]	0.276
ACCGGAUGUGCUUUCCGGUGUGAUGAAUCCGUGAGGACGAAACAG [C20G G27A]	0.381
ACCGGAUGUGCUUACCAGUCUGAUGAGUCCGUGAGGACGAAACAG [U14A G17A]	0.586
ACCGGAUGUGCUUUCCGGCCUGAUGAGUCCGUGAUGACGAAACAG [U19C G35U]	0.465
ACUGGAUAUGCUUUCCGGUCUGAUGAGUCCGUGAGGACGAAACAG [C3U G8A]	1.25
ACCGGACGUGCUUUCCGAUCUGAUGAGUCCGUGAGGACGAAACAG [U7C G18A]	0.438
ACCGGAUGUGCUUUCCGGUCUGAUGAGUCCGGGAGGACGAAAUAG [U32G C43U]	0.43
ACCGGAUGUGCUUACCGGUCUGAUGAGUCCGUGAGGACGAGACAG [U14A A41G]	0.28
ACCGGAUGUGCUUACCGGUCUGAGGAGUCCGUGAGGACGAAACAG [U14A U24G]	1.12
ACCGGAUGUGCUUUCCGGUCUGAUUAGUCCGUGAGGGCGAAACAG [G25U A37G]	0.287
ACCGGAUGUGCUUUCCGGUUUGAUGAGUCCGUGAGAACGAAACAG [C20U G36A]	0.36
ACCGGAUGUGCUGUCCGGUCUGAUGAGUCGGUGAGGACGAAACAG [U13G C30G]	0.593
ACCGGAUGUGAUUUCCGGUCUGAUGACUCCGUGAGGACGAAACAG [C11A G27C]	0.724
ACCGCAUGUGCUUUCCGGUCAGAUGAGUCCGUGAGGACGAAACAG [G5C U21A]	0.307
ACCGGAUGUGCUUUCCGGUCUGAUGAAUCCGUGAGGACGAAUCAG [G27A A42U]	0.301
ACCGGAUGUGCUUUCCGGUCUUAUGAUUCCGUGAGGACGAAACAG [G22U G27U]	0.273
ACCGGCCGUGCUUUCCGGUCUGAUGAGUCCGUGAGGACGAAACAG [A6C U7C]	0.577
CCCGGAUGUGCUUUCCGGUCUGAUGAGUCCGUGAUGACGAAACAG [A1C G35U]	0.435
ACCGGAUGUGCUUGCCGGUCUGAUGAGUCCGUGAGGACGCAACAG [U14G A40C]	0.52
